In patent US20080220446A1, “Method for Detecting and/or Removing Protein and/or Peptide Comprising a Cross-Beta Structure From an Aqueous Solution Comprising a Protein” (priority 2005, published 2008):

Assays:
[1] = Thioflavin T fluorescence of protein solutions; type: physicochemical; conditions: initial, compared with native β2GPI purified from plasma
Description: Fluorescence of ThT—protein/peptide adducts was measured as follows. […] Fluorescence was measured at 485 nm upon excitation at 435 nm. Background signals from buffer, buffer with ThT and protein/peptide solution without ThT were subtracted from corresponding measurements with protein solution incubated with ThT. Regularly, fluorescence of Aβ was used as a positive control, and fluorescence of FP10, a non-amyloid fibrin fragment^16, was used as a negative control. Fluorescence was measured in triplicate on a Hitachi F-4500 fluorescence spectrophotometer (Ltd., Tokyo, Japan).
Formulated protein therapeutics were obtained from the local hospital pharmacy and were used as supplied by the manufacturers. […] Lyophilized therapeutics were dissolved according to the manufacturers recommendations. GH, zinc-insulin, Cealb and gelatin were stored at −20, 4, room temperature, 37 and 65° C. Other protein therapeutics were only kept at 4° C., and assayed for the presence of cross-β structure at shown time points. Enhancement in fluorescence of ThT and Congo red was measured with all formulated protein therapeutics. […]
ThT fluorescence of β2GPI was measured as follows. […] In the ThT fluorescence assay, fluorescence of β2GPI in buffer, of CL or DXS500k in buffer, of buffer and ThT alone, and of β2GPI-CL adducts and β2GPI-DXS500k adducts, with or without ThT, was recorded as described above (section ThT fluorescence). In addition, TEM images were recorded with CL, β2GPI from human plasma, with or without CL, and with recombinant β2GPI, as described^5.
To prepare structurally altered ovalbumin (OVA) with amyloid cross-β structures, purified OVA (Sigma, A-7641, lot 071k7094) was heated to 85° C. […] Native OVA (nOVA) and heat-denatured OVA (dOVA) were tested in the ThT fluorescence assay and in the Plg-activation assay. In the fluorescence assay and in the Plg-activation assay, 25 and 100 μg ml^−1 nOVA and dOVA were tested, respectively. […]
MSA (#126674, Calbiochem) was dissolved in 8 M urea, 100 mM Tris-HCl pH 8.2, at 10 mg ml^−1 final concentration. […] The presence of aggregates or fibrils was analyzed using TEM. […]

[2] = target: tPA (Homo sapiens, UniProt P00750); test: ELISA, binding of β2GPI to immobilized tPA
Description: (§1) Binding of purified human factor XII from plasma (Calbiochem) or of purified recombinant human tPA to β2GPI purified from human plasma, or to recombinant human β2GPI was tested in an ELISA. Ten μg of factor XII or tPA in PBS was coated onto wells of a Costar 2595 ELISA plate (Cambridge, USA) and incubated with concentration series of the two β2GPI preparations. Binding of β2GPI was assessed with monoclonal antibody 2B2^22.

[3] = target: T1, factor XII (Homo sapiens, UniProt P00748); test: ELISA, binding of β2GPI to immobilized factor XII
T1 construct: purified human factor XII from plasma (Calbiochem); purchased Calbiochem; host or cells: human plasma
T1 sequence (P00748 20-615): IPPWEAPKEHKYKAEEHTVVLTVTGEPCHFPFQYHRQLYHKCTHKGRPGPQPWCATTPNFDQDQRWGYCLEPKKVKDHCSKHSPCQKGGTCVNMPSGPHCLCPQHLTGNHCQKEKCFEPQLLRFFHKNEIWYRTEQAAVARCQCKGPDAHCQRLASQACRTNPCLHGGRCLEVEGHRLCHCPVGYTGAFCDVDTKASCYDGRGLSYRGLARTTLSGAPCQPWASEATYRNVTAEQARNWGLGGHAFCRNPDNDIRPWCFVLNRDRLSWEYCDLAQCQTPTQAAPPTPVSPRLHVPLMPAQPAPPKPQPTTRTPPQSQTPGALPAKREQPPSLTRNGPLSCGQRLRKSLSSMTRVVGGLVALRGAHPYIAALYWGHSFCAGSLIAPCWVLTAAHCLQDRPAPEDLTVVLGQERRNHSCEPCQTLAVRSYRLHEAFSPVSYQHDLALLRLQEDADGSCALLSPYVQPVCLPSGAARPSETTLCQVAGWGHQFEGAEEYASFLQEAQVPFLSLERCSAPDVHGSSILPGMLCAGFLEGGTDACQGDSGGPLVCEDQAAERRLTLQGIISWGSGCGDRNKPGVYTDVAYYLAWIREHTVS
Description: as §1

tPA, sequence (P00750 36-562): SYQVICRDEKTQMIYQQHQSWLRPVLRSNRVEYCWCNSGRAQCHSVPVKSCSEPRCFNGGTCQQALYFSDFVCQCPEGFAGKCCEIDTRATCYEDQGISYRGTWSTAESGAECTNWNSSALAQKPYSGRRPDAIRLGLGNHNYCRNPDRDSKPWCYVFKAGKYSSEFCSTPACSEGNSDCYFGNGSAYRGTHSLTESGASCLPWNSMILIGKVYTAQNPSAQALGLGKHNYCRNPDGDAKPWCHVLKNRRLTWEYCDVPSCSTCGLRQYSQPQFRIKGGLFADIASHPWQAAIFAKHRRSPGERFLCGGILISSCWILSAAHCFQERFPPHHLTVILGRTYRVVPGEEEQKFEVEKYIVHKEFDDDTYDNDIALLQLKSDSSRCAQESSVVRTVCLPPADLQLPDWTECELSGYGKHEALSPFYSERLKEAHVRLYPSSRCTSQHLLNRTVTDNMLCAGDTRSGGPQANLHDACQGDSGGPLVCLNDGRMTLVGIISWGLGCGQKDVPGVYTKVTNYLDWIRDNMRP

binding to tPA [2]: bind
binding to factor XII [3]: bind
B1: recombinant β2GPI: recombinant human β2-glycoprotein I made using insect cells (protein)
chain: GRTCPKPDDLPFSTVVPLKTFYEPGEEITYSCKPGYVSRGGMRKFICPLTGLWPINTLKCTPRVCPFAGILENGAVRYTTFEYPNTISFSCNTGFYLNGADSAKCTEEGKWSPELPVCAPIICPPPSIPTFATLRVYKPSAGNNSLYRDTAVFECLPQHAMFGNDTITCTTHGNWTKLPECREVKCPFPSRPDNGFVNYPAKPTLYYKDKATFGCHDGYSLDGPEEIECTKLGNWSAMPSCKASCKVPVKKATVVYQGERVKIQEKFKNGMLHGDKVSFFCKNKEKKCSYTEDAQCIDGTIEVPKCFKEHSSLAFWKTDASDVKPC
ThT fluorescence signal [1]: higher ThT fluorescence signal than native β2GPI purified from plasma
